Experimental data taken from PMC9279153, “Structure of the Dicer-2–R2D2 heterodimer bound to a small RNA duplex”.

Tests used:
[1] = molecular target: T1, Dicer-2;R2D2 (Drosophila;Drosophila, UniProt A1ZAW0;Q9VLW8 1-1722;1-311, |); assay: photocrosslinking; crosslinks to R2D2; Crosslinking: 20 nM siRNA, 40 nM Dicer-2-R2D2, 30 min, >300 nm UV 60 s, buffer not given; structure: 30 mM Hepes-KOH pH 7.4, 100 mM potassium acetate, 2 mM magnesium acetate, 1 mM DTT, 0.02% glycerol, protein:siRNA 1:2 mixed at room temperature; settings: protein: recombinant;recombinant; tags: 8xHis (structure prep);3xFlag; copies: 1;1; 3' overhang 2 nt on strand 2; U-U mismatch at nt 1 of strand 1
T1 sequence (A1ZAW0 whole entry, chain 1 of 2): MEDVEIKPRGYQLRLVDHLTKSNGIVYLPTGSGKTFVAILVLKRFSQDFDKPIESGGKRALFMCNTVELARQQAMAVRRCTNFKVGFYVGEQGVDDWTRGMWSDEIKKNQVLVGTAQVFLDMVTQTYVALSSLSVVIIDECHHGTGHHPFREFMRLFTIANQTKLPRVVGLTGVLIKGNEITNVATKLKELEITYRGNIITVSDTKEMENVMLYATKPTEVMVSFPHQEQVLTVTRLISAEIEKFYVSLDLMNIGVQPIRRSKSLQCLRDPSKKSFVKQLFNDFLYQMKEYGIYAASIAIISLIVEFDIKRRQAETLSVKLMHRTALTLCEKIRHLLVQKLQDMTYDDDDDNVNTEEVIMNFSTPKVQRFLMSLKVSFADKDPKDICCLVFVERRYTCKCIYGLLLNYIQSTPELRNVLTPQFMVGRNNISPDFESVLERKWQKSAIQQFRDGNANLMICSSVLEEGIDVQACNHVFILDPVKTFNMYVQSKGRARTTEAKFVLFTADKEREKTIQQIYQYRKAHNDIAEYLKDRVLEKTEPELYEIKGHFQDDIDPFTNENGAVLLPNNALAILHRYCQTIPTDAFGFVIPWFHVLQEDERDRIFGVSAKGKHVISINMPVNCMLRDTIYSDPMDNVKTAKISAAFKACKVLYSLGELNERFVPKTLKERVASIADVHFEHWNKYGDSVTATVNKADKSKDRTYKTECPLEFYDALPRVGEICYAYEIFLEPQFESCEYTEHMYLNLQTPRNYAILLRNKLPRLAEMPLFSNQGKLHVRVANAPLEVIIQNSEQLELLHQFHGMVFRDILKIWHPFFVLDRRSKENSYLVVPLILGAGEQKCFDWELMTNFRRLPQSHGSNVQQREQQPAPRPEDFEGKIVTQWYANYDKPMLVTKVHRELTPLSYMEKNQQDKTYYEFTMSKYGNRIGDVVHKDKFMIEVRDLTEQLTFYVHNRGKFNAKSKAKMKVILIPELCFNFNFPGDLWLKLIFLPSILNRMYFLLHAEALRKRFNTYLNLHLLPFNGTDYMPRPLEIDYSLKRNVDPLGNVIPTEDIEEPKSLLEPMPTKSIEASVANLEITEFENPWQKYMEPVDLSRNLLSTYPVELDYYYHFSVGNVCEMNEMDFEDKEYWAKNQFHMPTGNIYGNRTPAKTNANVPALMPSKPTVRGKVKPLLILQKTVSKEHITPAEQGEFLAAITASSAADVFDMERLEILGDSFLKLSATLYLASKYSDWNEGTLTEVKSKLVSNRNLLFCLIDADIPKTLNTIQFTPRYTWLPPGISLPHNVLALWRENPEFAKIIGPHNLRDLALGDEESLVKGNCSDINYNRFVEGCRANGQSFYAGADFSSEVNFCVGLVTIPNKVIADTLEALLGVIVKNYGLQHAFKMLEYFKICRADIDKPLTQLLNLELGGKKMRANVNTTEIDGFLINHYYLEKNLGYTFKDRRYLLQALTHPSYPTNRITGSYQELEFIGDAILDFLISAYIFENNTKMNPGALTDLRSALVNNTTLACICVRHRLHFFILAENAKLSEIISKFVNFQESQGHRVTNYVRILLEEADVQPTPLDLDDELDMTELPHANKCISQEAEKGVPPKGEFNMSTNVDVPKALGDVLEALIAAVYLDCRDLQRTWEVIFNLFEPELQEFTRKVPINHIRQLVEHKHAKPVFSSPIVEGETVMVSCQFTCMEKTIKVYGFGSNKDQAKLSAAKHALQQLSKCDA
T1 sequence (chain, as listed by the source |, chain 2 of 2): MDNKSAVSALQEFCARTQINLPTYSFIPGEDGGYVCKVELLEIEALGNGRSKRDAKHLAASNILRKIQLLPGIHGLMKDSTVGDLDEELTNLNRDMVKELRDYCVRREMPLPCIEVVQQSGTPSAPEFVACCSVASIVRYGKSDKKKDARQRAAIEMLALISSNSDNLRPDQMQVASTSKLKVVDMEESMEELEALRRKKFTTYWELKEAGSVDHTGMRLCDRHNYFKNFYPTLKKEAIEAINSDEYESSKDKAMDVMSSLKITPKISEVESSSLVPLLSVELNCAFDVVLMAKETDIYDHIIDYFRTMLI

[2] = molecular target: T1, Dicer-2;R2D2; assay: photocrosslinking; crosslinks to R2D2, similar to 2-nt overhang; Crosslinking: 20 nM siRNA, 40 nM Dicer-2-R2D2, 30 min, >300 nm UV 60 s, buffer not given; structure: 30 mM Hepes-KOH pH 7.4, 100 mM potassium acetate, 2 mM magnesium acetate, 1 mM DTT, 0.02% glycerol, protein:siRNA 1:2 mixed at room temperature; settings: protein: recombinant;recombinant; tags: 8xHis (structure prep);3xFlag; copies: 1;1; U-U mismatch at nt 1 of strand 1
[3] = molecular target: Dicer-2;R2D2 K98A (Drosophila;Drosophila, UniProt A1ZAW0;Q9VLW8 1-1722;1-311, |K98A); assay: photocrosslinking; g* crosslinking not affected by K98A; Crosslinking: 20 nM siRNA, 40 nM Dicer-2-R2D2, 30 min, >300 nm UV 60 s, buffer not given; structure: 30 mM Hepes-KOH pH 7.4, 100 mM potassium acetate, 2 mM magnesium acetate, 1 mM DTT, 0.02% glycerol, protein:siRNA 1:2 mixed at room temperature; settings: protein: recombinant;recombinant; tags: 8xHis (structure prep);3xFlag; copies: 1;1; 3' overhang 2 nt on both strands
Chain of Dicer-2;R2D2 K98A (A1ZAW0 whole entry, chain 1 of 2): as the sequence (A1ZAW0 whole entry, chain 1 of 2) above
Chain of Dicer-2;R2D2 K98A (chain, as listed by the source |K98A | K98A K98A, chain 2 of 2): as the sequence (chain, as listed by the source |, chain 2 of 2) above, with K98A counted along it

[4] = molecular target: T1, Dicer-2;R2D2; assay: photocrosslinking; g* crosslinks to R2D2; Crosslinking: 20 nM siRNA, 40 nM Dicer-2-R2D2, 30 min, >300 nm UV 60 s, buffer not given; structure: 30 mM Hepes-KOH pH 7.4, 100 mM potassium acetate, 2 mM magnesium acetate, 1 mM DTT, 0.02% glycerol, protein:siRNA 1:2 mixed at room temperature; settings: protein: recombinant;recombinant; tags: 8xHis (structure prep);3xFlag; copies: 1;1; 3' overhang 2 nt on both strands
[5] = molecular target: Dicer-2;R2D2 CTD Δα2 (Drosophila;Drosophila, UniProt A1ZAW0;Q9VLW8 1-1722;1-201+=GGGS+215-311, |internal_change); assay: photocrosslinking; g* crosslink to R2D2 abolished, g* crosslink to Dicer-2 increased (opposite orientation); Crosslinking: 20 nM siRNA, 40 nM Dicer-2-R2D2, 30 min, >300 nm UV 60 s, buffer not given; structure: 30 mM Hepes-KOH pH 7.4, 100 mM potassium acetate, 2 mM magnesium acetate, 1 mM DTT, 0.02% glycerol, protein:siRNA 1:2 mixed at room temperature; settings: protein: recombinant;recombinant; tags: 8xHis (structure prep);3xFlag; copies: 1;1; 3' overhang 2 nt on both strands
Chain of Dicer-2;R2D2 CTD Δα2 (A1ZAW0 whole entry, stated change not applied, chain 1 of 2): as the sequence (A1ZAW0 whole entry, chain 1 of 2) above
Chain of Dicer-2;R2D2 CTD Δα2 (chain, as listed by the source | | mutant, chain 2 of 2): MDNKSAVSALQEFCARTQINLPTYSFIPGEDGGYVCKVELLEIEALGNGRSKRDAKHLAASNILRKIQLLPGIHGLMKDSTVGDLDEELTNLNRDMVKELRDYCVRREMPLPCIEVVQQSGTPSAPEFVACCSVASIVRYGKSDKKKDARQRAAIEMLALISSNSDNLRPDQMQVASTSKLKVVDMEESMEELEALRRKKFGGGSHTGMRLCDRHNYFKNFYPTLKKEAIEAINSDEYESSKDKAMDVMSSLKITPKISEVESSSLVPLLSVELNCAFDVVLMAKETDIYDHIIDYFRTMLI

[6] = molecular target: T1, Dicer-2;R2D2; assay: cryo-EM; two duplexes: one on R2D2 (well resolved), one on Dicer-2 helicase (poorly resolved); Crosslinking: 20 nM siRNA, 40 nM Dicer-2-R2D2, 30 min, >300 nm UV 60 s, buffer not given; structure: 30 mM Hepes-KOH pH 7.4, 100 mM potassium acetate, 2 mM magnesium acetate, 1 mM DTT, 0.02% glycerol, protein:siRNA 1:2 mixed at room temperature; settings: protein: recombinant;recombinant; tags: 8xHis (structure prep);3xFlag; copies: 1;1; 19-nt duplex region with U-U mismatch at g1:p19; 3' overhang 2 nt on both strands

B1: g* siRNA, blunt stable end (siRNA-4/siRNA-5) (dsRNA)
RNA 1: UGAGGUAGUAGGUUGUAUAU
RNA 2: AUAUACAACCUACUACCUCUUU
modifications: 5-iodouracil at position 20 of strand 1 (written as U)
B1: binds [1].

B2: g* siRNA, 1-nt overhang (siRNA-4/siRNA-2) (dsRNA)
RNA 1: UGAGGUAGUAGGUUGUAUAU
RNA 2: UAUACAACCUACUACCUCUUU
modifications: 5-iodouracil at position 20 of strand 1 (written as U)
B2: binds [2].

B3: g* siRNA, 2-nt overhang (siRNA-1/siRNA-2) (dsRNA)
RNA 1: UGAGGUAGUAGGUUGUAUAUU
RNA 2: UAUACAACCUACUACCUCUUU
modifications: 5-iodouracil at position 20 of strand 1 (written as U)
B3: binds [3]; binds [4]; binds [5].

B4: let-7 siRNA duplex (guide/passenger) (dsRNA)
RNA 1: UGAGGUAGUAGGUUGUAUAGU
RNA 2: UAUACAACCUACUACCUCUCU
modifications: 5'-phosphate (passenger p1)
B4: binds [6].
